Results reported in patent US20190360025A1.

How the values were obtained:
[1] = molecular target: interleukin 6 (IL-6), R&D Systems 206-IL-010 (UniProt P05231); assay: c-PLA, buffer; IL-6 1.00E-14 M
[2] = molecular target: interleukin 6 (IL-6), R&D Systems 206-IL-010 (UniProt P05231); assay: SPR, value from the software's off-rate, beyond the sensitivity range of the instrument
[3] = molecular target: interleukin 6 (IL-6), R&D Systems 206-IL-010 (UniProt P05231); assay: SPR (Biacore T200), 1:1 global fit
[4] = molecular target: interleukin 6 (IL-6), R&D Systems 206-IL-010 (UniProt P05231); assay: t-PLA, buffer; IL-6 1.00E-14 M
[5] = molecular target: interleukin 6 (IL-6), R&D Systems 206-IL-010 (UniProt P05231); assay: c-PLA, buffer; IL-6 1.00E-08 M
[6] = molecular target: interleukin 6 (IL-6), R&D Systems 206-IL-010 (UniProt P05231); assay: t-PLA, buffer; IL-6 1.00E-11 M
[7] = molecular target: interleukin 6 (IL-6), R&D Systems 206-IL-010 (UniProt P05231); assay: SPR, off-rate given by the software, beyond the sensitivity range of the instrument
[8] = molecular target: interleukin 6 (IL-6), R&D Systems 206-IL-010 (UniProt P05231); assay: SPR, isoaffinity graph
[9] = molecular target: interleukin 6 (IL-6), R&D Systems 206-IL-010 (UniProt P05231); assay: c-PLA, buffer; IL-6 1.00E-11 M
[10] = molecular target: interleukin 6 (IL-6), R&D Systems 206-IL-010 (UniProt P05231); assay: c-PLA, buffer; IL-6 1.00E-12 M
[11] = molecular target: interleukin 6 (IL-6), R&D Systems 206-IL-010 (UniProt P05231); assay: c-PLA, buffer; IL-6 1.00E-10 M
[12] = molecular target: interleukin 6 (IL-6), R&D Systems 206-IL-010 (UniProt P05231); assay: t-PLA, buffer; IL-6 1.00E-13 M
[13] = molecular target: interleukin 6 (IL-6), R&D Systems 206-IL-010 (UniProt P05231); assay: t-PLA, buffer; IL-6 1.00E-08 M
[14] = molecular target: interleukin 6 (IL-6), R&D Systems 206-IL-010 (UniProt P05231); assay: c-PLA, buffer; IL-6 1.00E-09 M
[15] = molecular target: interleukin 6 (IL-6), R&D Systems 206-IL-010 (UniProt P05231); assay: c-PLA, buffer; IL-6 1.00E-13 M
[16] = molecular target: interleukin 6 (IL-6), R&D Systems 206-IL-010 (UniProt P05231); assay: SPR (Biacore T200), biotinylated antibody on CAP chip, 1:1 fit
[17] = molecular target: interleukin 6 (IL-6), R&D Systems 206-IL-010 (UniProt P05231); assay: t-PLA, buffer; IL-6 1.00E-10 M
[18] = molecular target: interleukin 6 (IL-6), R&D Systems 206-IL-010 (UniProt P05231); assay: t-PLA, buffer; IL-6 1.00E-09 M
[19] = molecular target: interleukin 6 (IL-6), R&D Systems 206-IL-010 (UniProt P05231); assay: BLI (Octet RED), antibody on protein G sensors, 1:1 global fit
[20] = molecular target: interleukin 6 (IL-6), R&D Systems 206-IL-010 (UniProt P05231); assay: t-PLA, buffer; IL-6 1.00E-12 M

Chain of UniProt P05231 (P05231 30-212 limits assumed): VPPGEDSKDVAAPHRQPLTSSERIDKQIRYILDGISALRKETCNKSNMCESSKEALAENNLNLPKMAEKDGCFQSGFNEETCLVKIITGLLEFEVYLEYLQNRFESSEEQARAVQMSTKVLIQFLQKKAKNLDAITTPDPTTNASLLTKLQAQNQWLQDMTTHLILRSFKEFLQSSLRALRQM

Work on “affinity-purified polyclonal anti-IL-6 antibody (R&D Systems AF-206-NA)” yielded a Counts [1] of 55.2, an SBR [1] of 3 and a Kd [2] of 0.199 pM. The Kd [3] was < 4.3 pM, the koff [3] was < 1e-05 s⁻¹ and the kon [3] was 2.33e+06 M⁻¹ s⁻¹. For the same substance, the Counts [4] was 3.03e+06, the SBR [4] was 2.1 and the Counts [5] was 137000. For the same substance, the SBR [5] was 7540, the Counts [6] was 3.72e+07 and the SBR [6] was 26. The koff [7] was 4.65e-07 s⁻¹, the Kd [8] was < 5 pM and the Counts [9] was 1980. It also gave an SBR [9] of 109, a Counts [10] of 141 and an SBR [10] of 7.8. It also gave a Counts [11] of 30800, an SBR [11] of 1700 and a Counts [12] of 2.68e+06. The SBR [12] was 1.8, the Counts [13] was 2.05e+09 and the SBR [13] was 1410. For the same substance, the Counts [14] was 312000, the SBR [14] was 17200 and the Counts [15] was 84.3. The SBR [15] was 4.6, the Kd [16] was < 4.3 pM and the koff [16] was < 1e-05 s⁻¹. The kon [16] was 2.3e+06 M⁻¹ s⁻¹, the Counts [17] was 3.88e+08 and the SBR [17] was 267. For the same substance, the Counts [18] was 3.87e+09, the SBR [18] was 2670 and the Kd [19] was < 2.49 pM. The koff [19] was < 1e-06 s⁻¹, the kon [19] was 402000 M⁻¹ s⁻¹ and the Counts [20] was 1.16e+07. For the same substance, the SBR [20] was 8.
